Assay results as given in patent publication US20060253917A1 (published 2006).

Assays:
[1] = target: T1, OsMADS8 aa 75-248 (Oryza sativa, UniProt Q9SAR1 75-248); assay: Y2H; input trait library
T1 construct: prey, AD fusion; also called PN20778
T1 sequence: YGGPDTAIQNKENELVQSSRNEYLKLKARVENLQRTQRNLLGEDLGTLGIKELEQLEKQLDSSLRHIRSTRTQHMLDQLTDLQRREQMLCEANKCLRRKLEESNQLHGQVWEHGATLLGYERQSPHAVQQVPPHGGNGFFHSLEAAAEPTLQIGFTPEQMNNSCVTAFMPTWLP
Method in brief: (§1)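 Protein-protein interactions were detected in an automated, high-throughput yeast two-hybrid assay from Myriad Genetics Inc. (Salt Lake City, Utah), with a bait clone encoding a defined amino-acid fragment of a rice protein screened against the input trait or output trait rice prey library. Interacting proteins were identified by BLAST comparison of the encoding sequences of retrieved prey clones against databases.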

[2] = target: T2, OsMADS17 aa 106-249 (Oryza sativa, UniProt Q7XUN2 106-249); assay: Y2H; input trait library
T2 construct: prey, AD fusion; also called PN20914; O. sativa MADS box transcription factor MADS17
T2 sequence: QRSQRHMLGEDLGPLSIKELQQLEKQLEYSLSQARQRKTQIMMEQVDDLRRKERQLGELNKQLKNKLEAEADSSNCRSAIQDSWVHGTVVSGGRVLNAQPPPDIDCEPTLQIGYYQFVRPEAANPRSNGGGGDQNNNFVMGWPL
Method in brief: as §1

[3] = target: T3, OsMADS45 aa 96-249 (Oryza sativa, UniProt P0C5B0 96-249); assay: Y2H; input trait library
T3 construct: prey, AD fusion; also called PN20231
T3 sequence: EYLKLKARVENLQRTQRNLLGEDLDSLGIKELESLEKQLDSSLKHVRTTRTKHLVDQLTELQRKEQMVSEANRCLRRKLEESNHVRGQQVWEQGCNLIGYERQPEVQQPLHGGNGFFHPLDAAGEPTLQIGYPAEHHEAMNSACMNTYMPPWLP
Method in brief: as §1

[4] = target: T4, OsPN22834 aa 112-278 (Oryza sativa, UniProt Q01IK0 110-276); assay: Y2H; input trait library
T4 construct: prey, AD fusion; also called Novel protein PN22834, similar to Oshox6, fragment
T4 sequence: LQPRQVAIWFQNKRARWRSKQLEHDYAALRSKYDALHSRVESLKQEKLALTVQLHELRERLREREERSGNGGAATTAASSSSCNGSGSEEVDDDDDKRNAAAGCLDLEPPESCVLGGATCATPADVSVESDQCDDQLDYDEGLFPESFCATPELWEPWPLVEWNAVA
Method in brief: as §1

[5] = target: T5, OsMADS1 aa 100-231 (Oryza sativa, UniProt A2XDY1 100-231); assay: Y2H; input trait library
T5 construct: prey, AD fusion; also called PN19788
T5 sequence: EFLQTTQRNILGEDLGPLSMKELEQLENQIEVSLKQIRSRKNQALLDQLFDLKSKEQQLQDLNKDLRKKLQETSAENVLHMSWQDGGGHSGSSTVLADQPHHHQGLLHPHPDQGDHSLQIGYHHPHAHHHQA
Method in brief: as §1

[6] = target: T6, OsMADS1 aa 95-257 (Oryza sativa, UniProt A2XDY1 95-257); assay: Y2H; output trait library
T6 construct: prey, AD fusion; also called PN19788
T6 sequence: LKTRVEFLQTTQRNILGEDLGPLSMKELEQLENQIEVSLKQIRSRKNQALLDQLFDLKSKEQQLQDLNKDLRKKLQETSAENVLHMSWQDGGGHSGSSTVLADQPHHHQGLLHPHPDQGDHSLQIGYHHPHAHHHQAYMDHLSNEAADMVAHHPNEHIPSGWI
Method in brief: as §1

[7] = target: T7, OsMADS5 aa 109-225 (Oryza sativa, UniProt A2Y9P0 109-225); assay: Y2H; output trait library
T7 construct: prey, AD fusion; also called PN20770
T7 sequence: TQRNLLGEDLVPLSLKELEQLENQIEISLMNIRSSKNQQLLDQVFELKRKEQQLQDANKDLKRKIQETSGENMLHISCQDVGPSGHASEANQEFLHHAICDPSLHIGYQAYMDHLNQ
Method in brief: as §1

[8] = target: T8, OsMADS6 aa 116-250 (Oryza sativa, UniProt Q6EU39 116-250); assay: Y2H; output trait library
T8 construct: prey, AD fusion; also called PN20233
T8 sequence: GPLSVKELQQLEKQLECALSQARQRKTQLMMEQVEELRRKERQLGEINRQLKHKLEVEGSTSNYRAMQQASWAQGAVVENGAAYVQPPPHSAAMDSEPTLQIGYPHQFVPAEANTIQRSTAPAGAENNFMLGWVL
Method in brief: as §1

[9] = target: T9, OsMADS8 aa 107-248 (Oryza sativa, UniProt Q9SAR1 107-248); assay: Y2H; output trait library
T9 construct: prey, AD fusion; also called PN20778; O. sativa MADS box protein MADS8
T9 sequence: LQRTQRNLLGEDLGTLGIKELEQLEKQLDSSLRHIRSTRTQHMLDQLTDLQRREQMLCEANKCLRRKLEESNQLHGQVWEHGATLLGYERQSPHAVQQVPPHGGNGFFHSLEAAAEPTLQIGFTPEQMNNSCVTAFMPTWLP
Method in brief: as §1

[10] = target: T10, OsMADS45 aa 75-249 (Oryza sativa, UniProt P0C5B0 75-249); assay: Y2H; output trait library
T10 construct: prey, AD fusion; also called PN20231
T10 sequence: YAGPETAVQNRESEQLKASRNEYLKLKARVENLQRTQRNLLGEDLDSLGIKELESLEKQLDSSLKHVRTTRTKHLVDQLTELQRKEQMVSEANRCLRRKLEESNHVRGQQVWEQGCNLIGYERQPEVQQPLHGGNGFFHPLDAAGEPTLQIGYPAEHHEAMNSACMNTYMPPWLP
Method in brief: as §1

[11] = target: T11, OsFDRMADS6 aa 1-186 (Oryza sativa, UniProt P0C5B1 1-186); assay: Y2H; output trait library
T11 construct: prey, AD fusion; also called PN19766
T11 sequence: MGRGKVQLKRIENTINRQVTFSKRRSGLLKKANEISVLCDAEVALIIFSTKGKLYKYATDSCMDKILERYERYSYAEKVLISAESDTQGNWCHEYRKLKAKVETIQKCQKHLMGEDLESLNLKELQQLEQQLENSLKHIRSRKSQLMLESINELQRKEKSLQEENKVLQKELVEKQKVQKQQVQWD
Method in brief: as §1

[12] = target: T12, OsFDRMADS8 aa 53-233 (Oryza sativa, UniProt A2Z9Q7 53-233); assay: Y2H; output trait library
T12 construct: prey, AD fusion; also called PN20698
T12 sequence: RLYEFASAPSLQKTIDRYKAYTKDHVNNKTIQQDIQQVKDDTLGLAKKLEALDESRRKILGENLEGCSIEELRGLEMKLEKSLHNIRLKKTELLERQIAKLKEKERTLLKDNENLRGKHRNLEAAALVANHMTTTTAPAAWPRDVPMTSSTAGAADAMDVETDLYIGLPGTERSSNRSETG
Method in brief: as §1

binding result [1]: binds
binding result [2]: binds
binding result [3]: binds
binding result [4]: binds
binding result [5]: binds
binding result [6]: binds
binding result [7]: binds
binding result [8]: binds
binding result [9]: binds
binding result [10]: binds
binding result [11]: binds
binding result [12]: binds
B1: OsRAP1B aa 1-247 (other)
chain: MGRGKVQLKRIENKINRQVTFSKRRSGLLKKANEISVLCDAEVALIIFSTKGKLYEYATDSCMDKILERYERYSYAEKVLISAESDTQGNWCHEYRKLKAKVETIQKCQKHLMGEDLESLNLKELQQLEQQLENSLKHIRSRKSQLMLESINELQRKEKSLQEENKVLQKELVEKQKVQKQQLQWDQTQPQTISSSSSFMMREALPTTNISNYPAAAGERIEDVPAGQPQHVRIGLPPWMLSHING
notes: bait, Gal4 DBD fusion; also called PN20232
